Data from patent US12312397B2, “Anti-O2 antibodies and uses thereof” (priority 2016, dated 2025).

Key:
KPC strain Kp977778_O2 = experiment: Lethal pneumonia model, KPC strain Kp977778_O2; assay type: in vivo, Klebsiella pneumoniae; conditions: C57/BL6 mice, 3e8 CFU; mAb 2 mg/kg 1 hour post infection; survival
Protocol: (§1) C57/BL6 mice were obtained from Jackson Laboratories and maintained in a special pathogen-free facility. All animal experiments were conducted in accordance with Institutional Animal Care and Use Committee (IACUC) protocol and guidance. K. pneumoniae strains were grown on agar plates overnight and diluted in saline at proper concentration. The inoculum titer was determined by plating a serial dilution of bacteria onto agar plates prior to and post challenge. In acute pneumonia models, C57/BL6 mice were inoculated with 1e4 to 2e8 colony-forming units (CFU) of K. pneumoniae clinical isolates in 50 μl saline intranasally. Anti-K pneumoniae monoclonal antibodies (mAbs) and human IgG1 control antibodies were given 1-24 hour post bacterial challenge (therapeutic dosing). Mouse survival was monitored daily until up to day 8. Survival data of representative experiments were plotted in Graphpad Prism software.
(§2) Mice were challenged with 2e8 CFU of Klebsiella pneumoniae Carbanpenemase (KPC) strain Kp961842_O2 or with 3e8 CFU of KPC strain Kp977778_O2, followed by the administration of anti-O2 mAbs. When administered at a concentration of 2 mg/kg 1 hour post bacterial infection, Class III anti-O2 LPS mAbs KPN42, KPN179-IgG1, and KPS44v2017 protected mice from lethal bacterial challenge with the multi-drug resistant KPC strains Kp961842_O2 (FIG. 6, left panel, and FIG. 10) and Kp977778_O2 (FIG. 6B, right panel).

[1] = test system: K. pneumoniae 8570ΔcpsBLux (O2); experiment: Opsonophagocytic killing (OPK) assay, O2 capsule mutant; assay type: cell-based, Klebsiella pneumoniae; parameters: key to D Capsule OPK O2: +++: Strongly positive activity; +: Positive activity; +/−: Somewhat positive depending upon the test conditions
Summary of the method: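 Luminescent capsule-deficient K. pneumoniae strains were mixed with DMF-differentiated HL-60 cells, 1:10 baby rabbit serum and anti-O2 LPS mAbs (2 ng–2.5 μg/mL), then shaken for 2 h at 37 °C. Killing % came from luminescence (RLU) against no-antibody and negative-control mAb wells, with >40% scored as positive.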

O1 LPS [2] = experiment: ELISA binding to O1 LPS; parameters: species or system Klebsiella pneumoniae; conditions: secondary screening
Protocol: The coated plates were incubated with cell culture supernatants from polyclonally stimulated lymphocytes (AMVBRA) or from monoclonal immortalized B cells (donor interrogations) containing fully human antibodies or with diluted plasma samples (PBMC donor selections) for 1 hour at room temperature. The plates were then washed with PBS containing 0.1% Tween-20 (PBS-T). Secondary antibody was added; either Alkaline Phosphatase-conjugated Goat Anti-Human IgG-AP (Southern Biotech, 2040-04, 1:1000 in PBS-B) or Peroxidase AffiniPure F(ab′)2 Fragment Goat Anti-Human IgG, Fc Fragment Specific (Jackson ImmunoResearch #309 036 098, 1:5000 in PBS-B) were used. Secondary antibodies were typically incubated for 1 h. Plates were washed three times with PBS-T, and P-NitroPhenyl Phosphate (pNPP, Sigma-Aldrich, cat #N2765-100TAB) or Sureblue (KPL, 53-00-03) substrates were added and incubated for 10 min or until the development of a colorimetric reaction. In the case of the HRP substrate Sureblue, the reaction was stopped by adding an equal volume of 0.2N HCl. The absorbance at 405 nm (pNPP) or 450 nm (Sureblue) was measured by a microplate reader (Biotek, Elx808).
The coated plates were incubated with serial dilutions of the monoclonal antibodies for 1 hour at room temperature. The plates were then washed with PBS containing 0.1% Tween-20 (PBS-T). Alkaline Phosphatase-conjugated Goat Anti-Human IgG (Southern Biotech, 2040-04, 1:1000 in PBS-B) was added. The secondary antibody reactions were incubated for 1 h. Plates were washed three times with PBS-T, and P-NitroPhenyl Phosphate (pNPP, Sigma-Aldrich, cat #N2765-100TAB) substrate was added and incubated for 30 min or until the development of a colorimetric reaction. The absorbance at 405 nm was measured by a microplate reader (Biotek, Elx808). The data was plotted with Graphpad Prism software. Representative mAbs from each class were tested for their binding to O1 LPS (FIG. 2A) and O2 LPS (FIG. 2B), and EC50 values were obtained (FIG. 2C). The majority of the anti-O2 LPS mAbs bound to both O1 and O2 LPS by ELISA. […] None of these LPS mAbs bound to the 03, 04, 05, 07, or 012 LPS serotypes (see e.g., FIG. 1A).

[3] = test system: O2 LPS activation of NF-κB in RAW264.7-lux cells; experiment: LPS neutralization assay (NF-κB luciferase, RAW264.7-lux), O2 LPS; assay type: cell-based, murine; conditions: for neutralizing activity against O2 LPS (NF-κB activation): human IgG1 format; for neutralization of LPS-O2: secondary screening
Summary of the method: (§3)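 Serially diluted mAbs (human IgG1) pre-mixed 1:1 with LPS at 4 °C for 1 hr, then diluted 1:10 onto RAW264.7-lux cells carrying an NF-κB-driven firefly luciferase; 2.5 h at 37 °C. Luminescence read; % inhibition relative to no-antibody and negative-control mAb wells.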

O2 LPS = experiment: ELISA binding to O2 LPS; parameters: species or system Klebsiella pneumoniae; conditions: secondary screening, ELISA
Summary of the method: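 Serial dilutions of monoclonal antibodies bound to LPS-coated plates for 1 h at room temperature, detected with alkaline phosphatase-conjugated anti-human IgG (1 h) and pNPP substrate (30 min). Absorbance read at 405 nm; EC50 values derived from binding curves.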

KPC strain Kp961842_O2 = experiment: Lethal pneumonia model, KPC strain Kp961842_O2; assay type: in vivo, Klebsiella pneumoniae; conditions: C57/BL6 mice, 2e8 CFU; mAb 2 mg/kg 1 hour post infection; survival
Protocol: as §1, §2

O1 LPS [4] = experiment: Western blot of purified Klebsiella LPS serotypes, O1 LPS; assay type: binding, Klebsiella pneumoniae; conditions: FIG. 1A
From the text: FIGS. 1A-B show the expansion of the O2 LPS serotype in multi-drug resistant (MDR) strains of Klebsiella pneumoniae.
SDS-PAGE analysis followed by Silver Stain confirmed the purity of LPS. Human antibodies against O2 serotypes were then identified based on the reactivity of human B cells against the respective purified LPS. […] (FIG. 1A).

[5] = test system: O1 LPS activation of NF-κB in RAW264.7-lux cells; experiment: LPS neutralization assay (NF-κB luciferase, RAW264.7-lux), O1 LPS; assay type: cell-based, murine; conditions: for neutralizing activity against O1 LPS (NF-κB activation): human IgG1 format; for neutralization of LPS-O1: secondary screening
Summary of the method: as §3

K. pneumoniae O1/O2 = experiment: Mouse protection models (O1/O2), Table 7 summary; assay type: in vivo, Klebsiella pneumoniae; parameters: key: +++: Strongly positive activity; +: Positive activity; +/−: Somewhat positive depending upon the test conditions; conditions: mouse pneumonia models
Protocol: As described in more detail in below, anti-O2 LPS mAbs were tested for: 1) binding to O1 and O2 LPS (see Example 5); 2) LPS neutralization (LPS-Neut) against O1 and O2 LPS (see Example 7); 3) OPK against capsule mutant strain 43816ΔcpsB lux (O1) and 8570ΔcpsB lux (O2) (see Example 8); and 4) protective activity in pneumonia models (see Example 9). O2 LPS mAbs were subsequently divided into three classes based on their in vitro activities. Class I mAbs were characterized as Binding (O1+O2+)/OPK (O1−O2+); Class 2 mAbs were characterized as Binding (O1+O2+)/OPK (O1+O2+); and Class III mAbs were characterized as Binding (O1±O2+)/OPK (O1−O2+).
as §1, with “Anti-K pneumoniae monoclonal antibodies (mAbs) and human IgG1 control antibodies were given 1-24 hour post bacterial challenge (therapeutic dosing).” left out, “Survival data of representative experiments were plotted in Graphpad Prism software.” left out

B1: KPD1: Class I anti-O2 antigen human mAb; VH SEQ ID NO: 134, VL SEQ ID NO: 135 (antibody, V domains shown)
VH: QVQLQESDPRLVKPSETLSLTCSVSGVSITSNTYWWAWIRQPPGKKLEWIGSLSYSGDTYYNPSLTSRVTISRDIHQNQFFLELNSVTAADTAMYYCARDPDIIRNFQFDYWGRGTLVTVSS
VL: EIVLTQSPGILSLSPGERATLSCRVSQILYMSHLAWYQHKPGQAPRLLIYGASIRATGVPDRFSGSGSGTDFTLTISRLEPEDFAVYYCQQYGASPTFGQGTMVEIK
modifications: Description of Artificial Sequence: SyntheticKPD1 VH polypeptide; Description of Artificial Sequence: SyntheticKPD1 VL polypeptide
KPC strain Kp977778_O2
  protection from lethal bacterial challenge, Kp977778_O2: did not protect
[1]; secondary screening
  OPK activity against O2 capsule mutant: showed OPK activity
O1 LPS [2]
  binding to LPS-O1: showed binding
[3]
  neutralizing activity against O2 LPS (NF-κB activation): blocked
  neutralization of LPS-O2: neutralized
O2 LPS
  binding to LPS-O2: showed binding
KPC strain Kp961842_O2
  protection from lethal bacterial challenge, Kp961842_O2: did not protect
O1 LPS [4]
  cross-reactivity with O1 LPS: showed cross-reactivity with O1 LPS
[5]
  neutralizing activity against O1 LPS (NF-κB activation): blocked
  neutralization of LPS-O1: neutralized

B2: KPN70: Class I anti-O2 antigen human mAb; VH SEQ ID NO: 44, VL SEQ ID NO: 45 (antibody, V domains shown)
VH: QVQLQESGPGLVKPSETLSLTCTVSGGSISTYYWNWIRQSPGKELEWIANIHQSGTTYYNPSLKSRVTMSVDTSKNQFSLKVISVTAADTAVYYCARESDDGYKWNYFDYWGQGTLVTVSS
VL: EIVLTQSPASLSLSPGERATLSCRASQIVTNYLAWYQHKPGQAPRLLIFDMSIRAAGIPARFSGSGSGTDFTLTISSLEPEDFAVYYCQHRSNWPLFTFGPGTKVDIK
modifications: Description of Artificial Sequence: SyntheticKPN70 VH polypeptide; Description of Artificial Sequence: SyntheticKPN70 VL polypeptide
KPC strain Kp977778_O2
  protection from lethal bacterial challenge, Kp977778_O2: did not protect
[1]; capsule mutant strain 8570ΔcpsB lux (O2)
  D Capsule OPK O2: +++
[3]
  neutralizing activity against O2 LPS (NF-κB activation): blocked
  neutralization of LPS-O2: neutralize
KPC strain Kp961842_O2
  protection from lethal bacterial challenge, Kp961842_O2: did not protect
K. pneumoniae O1/O2
  Mouse protection models (O1/O2): +/−
[5]
  neutralizing activity against O1 LPS (NF-κB activation): blocked
  neutralization of LPS-O1: neutralize
